According to US6518401B2, “Tumor necrosis factor stimulated gene 6 (TSG-6) protein” (New York University, priority 1991, dated 2003):

B1: IL-1: E. coli-derived recombinant human IL-1α (protein, UniProt P01583 113-271, looked up)
Interleukin-1 alpha: SAPFSFLSNVKYNFMRIIKYEFILNDALNQSIIRANDQYLTAAALHNLDEAVKFDMGAYKSSKDDAKITVILRISKTQLYVTAQDEDQPVLLKEMPEIPKTITGSETNLLFFWETHGTKNYFTSVAHPNLFIATKQDYWVCLAGGPPSITDFQILENQA
modifications: E. coli recombinant
notes: E. coli-derived recombinant human IL-1α
B2: IαI: inter-α-inhibitor purified from human serum; the TSG-6 binding protein (protein)
chain 1: AVLPQEEEGSGGGQLVTEVTKKEDSCQLGYSAGPCMGMTSRYFYNGTSMACETFQYGGCMGNGNNFVTEKECLQTCRTVAACNLPIVRGPCRAFIQLWAFDAVKGKCVLFPYGGCQGNGNKFYSEKECREYCGVPGDGDEELLRFSN
chain 2: SLPGESEEMMEEVDQVTLYSYKVQSTITSRMATTMIQSKVVNNSPQPQNVVFDVQIPKGAFISNFSMTVDGKTFRSSIKEKTVGRALYAQARAKGKTAGLVRSSALDMENFRTEVNVLPGAKVQFELHYQEVKWRKLGSYEHRIYLQPGRLAKHLEVDVWVIEPQGLRFLHVPDTFEGHFDGVPVISKGQQKAHVSFKPTVAQQRICPNCRETAVDGELVVLYDVKREEKAGELEVFNGYFVHFFAPDNLDPIPKNILFVIDVSGSMWGVKMKQTVEAMKTILDDLRAEDHFSVIDFNQNIRTWRNDLISATKTQVADAKRYIEKIQPSGGTNINEALLRAIFILNEANNLGLLDPNSVSLIILVSDGDPTVGELKLSKIQKNVKENIQDNISLFSLGMGFDVDYDFLKRLSNENHGIAQRIYGNQDTSSQLKKFYNQVSTPLLRNVQFNYPHTSVTDVTQNNFHNYFGGSEIVVAGKFDPAKLDQIESVITATSANTQLVLETLAQMDDLQDFLSKDKHADPDFTRKLWAYLTINQLLAERSLAPTAAAKRRITRSILQMSLDHHIVTPLTSLVIENEAGDERMLADAPPQDPSCCSGALYYGSKVVPDSTPSWANPSPTPVISMLAQGSQVLESTPPPHVMRVEND
chain 3: SKSSEKRQAVDTAVDGVFIRSLKVNCKVTSRFAHYVVTSQVVNTANEAREVAFDLEIPKTAFISDFAVTADGNAFIGDIKDKVTAWKQYRKAAISGENAGLVRASGRTMEQFTIHLTVNPQSKVTFQLTYEEVLKRNHMQYEIVIKVKPKQLVHHFEIDVDIFEPQGISKLDAQASFLPKELAAQTIKKSFSGKKGHVLFRPTVSQQQSCPTCSTSLLNGHFKVTYDVSRDKICDLLVANNHFAHFFAPQNLTNMNKNVVFVIDISGSMRGQKVKQTKEALLKILGDMQPGDYFDLVLFGTRVQSWKGSLVQASEANLQAAQDFVRGFSLDEATNLNGGLLRGIEILNQVQESLPELSNHASILIMLTDGDPTEGVTDRSQILKNVRNAIRGRFPLYNLGFGHNVDFNFLEVMSMENNGRAQRIYEDHDATQQLQGFYSQVAKPLLVDVDLQYPQDAVLALTQNHHKQYYEGSEIVVAGRIADNKQSSFKADVQAHGEGQEFSITCLVDEEEMKKLLRERGHMLENHVERLWAYLTIQELLAKRMKVDREERANLSSQALQMSLDYGFVTPLTSMSIRGMADQDGLKPTIDKPSEDSPPLEMLGPRRTFVLSALQPSPTHSSSNTQRLPDRVTGVDTD

Tests used:
TSG-8 (MCAF) mRNA = test: Northern blot analysis of TSG mRNA levels in FS-4 cells; format: cell-based, human; conditions: growth arrested FS-4 cells, 2 h; TNF 20 ng/ml, CHX 10 ug/ml, IFN-β 500 U/ml, IFN-γ 100 U/ml, IL-1-α 1 ng/ml, EGF 25 ng/ml, TGF-β 2 ng/ml, poly(I).poly(C) 50 ug/ml, TPA 100 ng/ml, A23187 1 uM, forskolin 10 uM, dBcAMP 100 uM, IBMX 100 uM
Experimental: (§1) The human diploid FS-4 foreskin fibroblast cell line (Vilcek, J. et al, Proc. Natl. Acad. Sci. USA 70:3909-3913 (1973)) was used at passage level 15 in all experiments. FS-4 cells were grown in Eagle minimal essential medium (E-MEM) supplemented with 6 mM HEPES, 3 mM Tricine, 50 μg/ml gentamicin, and 5% heat inactivated (56° C., 30 min) fetal bovine serum (FBS; GIBCO Laboratories, Grand Island, N.Y.). For experiments, 4×10^6 cells were seeded in 175 cm^2 Falcon flasks, incubated at 37° C., and allowed to grow to confluence over 6 days. The confluent monolayers were washed once with phosphate buffered saline and replenished with E-MEM containing […] FBS. The cultures were incubated in this medium for another 72 h at 37° C. to let the cells become quiescent and then treated with the appropriate agents, as specified herein.
(§2) Cytoplasmic RNA was fractionated on a 1% agarose gel containing formaldehyde and blotted onto Zeta-probe blotting membranes (Bio-Rad Laboratories, Richmond, Calif.). Cytoplasmic RNA was loaded at 10 μg/lane. Prehybridization and hybridization of Northern blots were performed as described (Lin, J.-X. et al, supra). Filters were probed with 32P-labeled cDNA insert from recombinant M13 clones and/or with 32P-labeled internal reference pHe7 insert. Northern blots were quantified with a laser densitometer.
(§3) The increase in mRNA levels ranged from about 3-fold (TSG-21) to over 100-fold (TSG-6 and TSG-8).
(§4) Table 3 provides a summary of a large number of experiments in which levels of mRNAs corresponding to the 8 distinct TSG cDNAs were determined in FS-4 cells exposed to various agents by Northern blot analysis. Three of the mRNAs (corresponding to TSG-8, TSG-12 and TSG-14) were inducible by the protein synthesis inhibitor, cycloheximide (CHX). […] In contrast, induction of the remaining 3 mRNAs by TNF was inhibited or reduced in the presence of CHX. Five of the mRNAs were inducible by IFN-β, but only two of these responded to […]. Simultaneous treatment with IFN-β reduced inducibility of TSG-1 (=IL-8) mRNA by TNF, but increased the inducibility of TSG-6 and TSG-37 mRNAs. All mRNAs were inducible by IL-1 and by the doublestranded RNA poly(I)-poly(C) or the phorbol ester 12-O-tetradecanoyl phorbol 13-acetate (TPA), but the efficiency of induction by these agents varied. Epidermal growth factor (EGF) was moderately efficient in increasing TSG-21 (=collagenase) and TSG-27 (=stromelysin) mRNA levels, and weakly stimulated several other mRNAs. PDGF and transforming growth factor-β (TGF-β) were only weakly effective, as were dibutyryl cyclic AMP (dBcAMP) and the phosphodiesterase inhibitor, isobutyl methyl xanthine (IBMX).

[1] = test system: TSG-27 (Stromelysin) mRNA; test: as above; format: cell-based, human; conditions: growth arrested FS-4 cells, 16 h of treatment; TNF 20 ng/ml, CHX 10 ug/ml, IFN-β 500 U/ml, IFN-γ 100 U/ml, IL-1-α 1 ng/ml, EGF 25 ng/ml, TGF-β 2 ng/ml, poly(I).poly(C) 50 ug/ml, TPA 100 ng/ml, forskolin 10 uM, IBMX 100 uM
Experimental: as §1, §2, §3, §4

TSG-14 mRNA = test: as above; format: cell-based, human; conditions: growth arrested FS-4 cells, 2 h; TNF 20 ng/ml, CHX 10 ug/ml, IFN-β 500 U/ml, IFN-γ 100 U/ml, IL-1-α 1 ng/ml, EGF 25 ng/ml, TGF-β 2 ng/ml, poly(I).poly(C) 50 ug/ml, TPA 100 ng/ml, A23187 1 uM, forskolin 10 uM, dBcAMP 100 uM, IBMX 100 uM
Experimental: as §1, §2, §3, §4

[2] = test system: TSG-21 (Collagenase) mRNA; test: as above; format: cell-based, human; conditions: growth arrested FS-4 cells, 16 h of treatment; TNF 20 ng/ml, CHX 10 ug/ml, IFN-β 500 U/ml, IFN-γ 100 U/ml, IL-1-α 1 ng/ml, EGF 25 ng/ml, TGF-β 2 ng/ml, poly(I).poly(C) 50 ug/ml, TPA 100 ng/ml, forskolin 10 uM, IBMX 100 uM
Experimental: as §1, §2, §3, §4

TSG-6 mRNA = test: as above; format: cell-based, human; conditions: growth arrested FS-4 cells, 2 h; TNF 20 ng/ml, CHX 10 ug/ml, IFN-β 500 U/ml, IFN-γ 100 U/ml, IL-1-α 1 ng/ml, EGF 25 ng/ml, TGF-β 2 ng/ml, poly(I).poly(C) 50 ug/ml, TPA 100 ng/ml, A23187 1 uM, forskolin 10 uM, dBcAMP 100 uM, IBMX 100 uM
Experimental: as §1, §2, §3, §4

TSG-37 (MT-II) mRNA = test: as above; format: cell-based, human; conditions: growth arrested FS-4 cells, 2 h; TNF 20 ng/ml, CHX 10 ug/ml, IFN-β 500 U/ml, IFN-γ 100 U/ml, IL-1-α 1 ng/ml, EGF 25 ng/ml, TGF-β 2 ng/ml, poly(I).poly(C) 50 ug/ml, TPA 100 ng/ml, A23187 1 uM, forskolin 10 uM, dBcAMP 100 uM, IBMX 100 uM
Experimental: as §1, §2, §3, §4

TSG-12 mRNA = test: as above; format: cell-based, human; conditions: growth arrested FS-4 cells, 2 h; TNF 20 ng/ml, CHX 10 ug/ml, IFN-β 500 U/ml, IFN-γ 100 U/ml, IL-1-α 1 ng/ml, EGF 25 ng/ml, TGF-β 2 ng/ml, poly(I).poly(C) 50 ug/ml, TPA 100 ng/ml, A23187 1 uM, forskolin 10 uM, dBcAMP 100 uM, IBMX 100 uM
Experimental: as §1, §2, §3, §4

TSG-1 (IL-8) mRNA = test: as above; format: cell-based, human; conditions: growth arrested FS-4 cells, 2 h; TNF 20 ng/ml, CHX 10 ug/ml, IFN-β 500 U/ml, IFN-γ 100 U/ml, IL-1-α 1 ng/ml, EGF 25 ng/ml, TGF-β 2 ng/ml, poly(I).poly(C) 50 ug/ml, TPA 100 ng/ml, A23187 1 uM, forskolin 10 uM, dBcAMP 100 uM, IBMX 100 uM
Experimental: as §1, §2, §3, §4

[3] = target: T1, IαI purified from human serum (Homo sapiens, UniProt P02760+P19823); test: TSG-6/IαI complex formation with purified proteins (SDS-PAGE, Western blot); format: binding; conditions: preincubated 16 hrs. at 37° C. with chondroitinase, then mixed with the untreated partner protein
T1 construct: IαI is a complex protein in which the bikunin chain is linked to HC1 and HC2; supposed to determine the cleavage site for the C-terminal propeptide; from tissue; host or cells: human serum
T1 sequence (P98066 18-277 partner, one chain of several): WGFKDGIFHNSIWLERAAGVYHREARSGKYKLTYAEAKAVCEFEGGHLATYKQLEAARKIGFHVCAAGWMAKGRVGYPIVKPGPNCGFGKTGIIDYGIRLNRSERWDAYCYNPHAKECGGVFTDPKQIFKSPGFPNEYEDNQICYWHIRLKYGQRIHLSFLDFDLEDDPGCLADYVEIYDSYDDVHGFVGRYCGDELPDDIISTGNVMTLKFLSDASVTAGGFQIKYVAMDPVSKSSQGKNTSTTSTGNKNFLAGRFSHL
Experimental: Purified recombinant TSG-6 protein (lane 1) and IαI purified from human serum (lane 2) were mixed and incubated for 2 min. (lane 3), 5 min. (lane 4), 10 min. (lane 5), 15 min. (lane 6), 30 min. (lane 7), or for 60 min. (lane 8) at 37° C. or for 60 min. at 0° C. (lane 9). The reaction mixtures were then separated by SDS-PAGE and subjected to Western blot analysis with rabbit anti-TSG-6 serum.
Four micrograms of purified IαI and 3 μg of purified TSG-6 protein were incubated separately for 16 hrs. at 37° C. in the absence or presence of 30 milliunits of chondroitin sulfate ABC lyase. […]
Analysis of TSG-6 Binding to Carrier Protein. To determine the presence of TSG-6 binding protein, samples to be analyzed were mixed with an equal volume of TSG-6-containing serum-free supernatants of TN-5 B insect cells infected with recombinant Baculovirus and incubated at 37° C. for 30-60 min. (Purified TSG-6 protein was used in some experiments, as indicated.) Thereafter, the mixtures were analyzed for the presence of the 120-kDa complex by Western blotting with purified rabbit antibody to TSG-6 as described earlier (Wisniewski et al, J. Immunol. 151:6593-6601 (1993)). […]
Rapid Complex Formation between Recombinant TSG-6 Protein and IαI Purified from Human Serum at 37° C. The 120kDa TSG-6/IαI complex formed readily when purified TSG-6 protein and purified IαI were incubated together at 37° C. but not at 0° C. […]

Row | Molecule | Relative Increase in mRNA Level TSG-8 (MCAF) (TSG-8 (MCAF) mRNA) | Relative Increase in mRNA Level TSG-27 (Stromelysin) [1] | Relative Increase in mRNA Level TSG-14 (TSG-14 mRNA) | Relative Increase in mRNA Level TSG-21 (Collagenase) [2] | Relative Increase in mRNA Level TSG-6 (TSG-6 mRNA) | Relative Increase in mRNA Level TSG-37 (MT-II) (TSG-37 (MT-II) mRNA) | Relative Increase in mRNA Level TSG-12 (TSG-12 mRNA) | Relative Increase in mRNA Level TSG-1 (IL-8) (TSG-1 (IL-8) mRNA) | ability to form the TSG-6/IαI complex after pretreatment of the protein with chondroitin sulfate ABC lyase [3]
1 | B1 | ++ | ++ | ++++ | ++ | + | ++ | ++++ | + | 
2 | B2 |  |  |  |  |  |  |  |  | no longer able to form a complex
